Laboratory results: the nanobody polyreactivity screen of Harvey et al. (2022)

Assay: yeast display, Sf9 membrane polyspecificity reagent, FACS + sequencing; frameworks hold sequencing errors
Procedure, shortened: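 Polyreactivity labels are assigned by the sorting gate from which each nanobody was recovered. The gates were low and high (top ~1%), set on anti-HA fluorescence for expression and streptavidin fluorescence for reagent binding. Before sorting, galactose-induced (36–48 hours) yeast display cells were stained for 1 hour at 4 °C with 10% biotinylated, detergent-solubilized Sf9 membrane reagent.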

Sequence | polyreactivity (PSR sort gate)
QVQLVESGGGLVQAGGSLRLSCAASGFTFIRYSMGWYRQAPGKERELVATISRSGGRTYYADSVKGRFTISRDNAKNTVYLQMNSLKPEDTAVYYCNAEAIVLNGGGYWGQGTQVTVSS | high polyreactivity
QVQLVESGGGLVQAGGSLRLSCAASGRTFGKYAMGWYRQAPGKEREFVAAISRSGGNTYYADSVKGRFTISRDNAKNTVYLQMNSLKPEDTAVYYCAAKGFFYYWGQGTQVTVSS | high polyreactivity
QVQLVESGGGIVQAGGSLRLSCAASGFIFGPYTMGWYRQAPGKERELVAAINNSGSTNYADSVKGRFTISRDNAKNTVYLQMNSLKPEDTAVYYCAAEPIIFVRYDYWGQGTHVTVSS | low polyreactivity
QVQLVESGGGLVQAGGSLRLSCAASGYIFVTNAMGWYRQAPGKERELVAAISYRGGSTSYADSVKGRFTISRDNAKNTVYLQMNSLKPEDTAVYYCNAVTFPLGYLRFYYWGQGTQVTVSS | low polyreactivity
QVQLVESGRGLVQAGASLRLSCAASGSTFAQYARGSYRQAPWKESELVAAITRTGITNYADSVKGRFTISRDNAKNNVYLQMNSLKPEDTAVYYCAARRWRNGYGTGYGYWGLGTQVTVSS | high polyreactivity
QVQLVESGGGVVQAGCSLRLSCAASGFTFRTNAMGWYRQAPGIEREFVAAISWSGGSTYYADSVKGRFTISRDNAKNTVYLQMNSLKPEDTAVYYCNADPFHWYYTNMYYWGQGTQVTVSS | high polyreactivity
QVQLVESGGGLVQAGGSLRLSCAASGSTFYYYAMGWYSPAPGKERELVAAISRGGGSTNYADSVKGRFTISRDNAKNTVYLQMNSLKPEDTAVYYCATDYKYYGRPYNYWGQGTQVTVSS | high polyreactivity
QVQLVESGGGLVQAGGSLRLSCAASGFTFRQYALGWYRQAPGKERELVAAISSGGSTYYADSVKGRFTISRDNAKNTVYLQMNSLKPEDTAVYYCNAVARYYVAYDMYWGQGTQVTVSS | high polyreactivity
QVQLVESGVGLVQAGGSLRLSSAASGSIFLSYDMGWYRQAPGKERELVAAITQSGGSTYYADSVKGRFTISRDNAKNTVYLQMNSLKPEDTAVYYCAADYGYFPQETYPTYGYYYWGQGTQVTVSS | low polyreactivity
QVQLVESGGGLVQAGGSLRLSCAASGSTFSRYAMGWYRQAPGKERELVAAISWGGNTYYADSVKGRFTISRDNAKNTVYLQMNSLKPEDTAVYYCNRYSKLYNTMDYWGQGPQVTVSS | high polyreactivity
QVQLVESGGGLVQAGGSLRLSCAASGITFVYYDMGWYRQAPGKERELLAAISSGGSTYYADSVKGRFTISRDNAKNTVYLQMNSLKPEDTAVYYCAAKISSNYHIGGDDYWGQGTQVSVSS | high polyreactivity
QVQLVESGGGLVQAGGSLRLSCAASGSIFVLYAMGWYRQAPGKERELVAAITSGASTNYADSVKGRFTISRDNAKNTVYLQMNSLKPEDTAVYYCNTGSRLDRVDSWGQGTQVTVSS | low polyreactivity
QVQLVESGGALVQAGGSLRLSCAASGRIFRKNAMGWYRQAPGKERELGAAISGGGGSTYYAVSVKGRFTISRDNAKNTVYLQMNSLQPEDTAVYYCNAPILPGYWGQGTQVTVSS | high polyreactivity
QVQLEESGGCLVQAGGSLRLSCAASGSIFWYNAMGRSRQAPGKERELVAAISYSGDRTYYADSVKGRFTISRDNAKNTGYLLMNSLKPEVTAVYYCAKAGTCFYNSWWEDSWGQGTQVTLSS | low polyreactivity
QVQLEESGGGLVQAGGSLRISCAASGFTFSHNAMGWYRQAPGKERELVAAISKGGSSTYYADSVKGRFTISRDNAKNTVYLQMNSLKPEDTAVYYCARPSPHKGYDYWGQGTQVTVSS | high polyreactivity
QVQLVESGGGLVQAGGSLRLSCAASGRTFSSYTMGWYRQAPGKERELVASITNNGGSTYYADSVKGRFTISRDNAKNTVYLQMNSLKPEDTAVYYCAVDSRGKLGISGEYGYWGQGTQVTVSS | low polyreactivity
QVHLVESGGGLVQAGGSLRLSCAASGRTFRSYAMGWYRQAPGKERELVAAISWSGGSTYYADSVKGRFTISRDNAKNTVYLQMNSLKPEDTAVYYCAASYFYFPYTSDEGYWGQGTQVTVSS | high polyreactivity
QVQLVESGGGLVQAGGSLRLSCAASGSIFGTYAMGWYRQAPGKEREFVAAISWSDGSTYYADSVKGRFTISRDNAKNTVYLQMNSLNPEDTAVYYCAVRRVGSIYIDRYIYVVADYDYWGQGTQVTVSS | low polyreactivity
QVQLVESGGGLVQAGGSLRLSCAASGRTFGFNAMGWYRQAPGKARELVAAISSSSSSTYYADSVKGRFTISRDNAKNTVYLQMNSLKPEDTAVYYCAKQEPYPFGGYYEYDYWGQGTQVTVSS | low polyreactivity
QVQLVESGGGLVQAGGSLRLSCAASGRTFRGYAMGWYRQAPGKERELVAAISWSGGSTYYADSVKGRFTISRDNAKNTVYLQMNSLKPEDTAVYYCNAVYRGVAYDYWGQGTQVTVSS | high polyreactivity
QVQLVESGGGLVQAGGSLRLSCAASGRTFVYYAMGWYRQAPGKERELVATISRRGGGTYYADSVKGRFTISRDNEKNTVYLQMNSLKPEDTAVYYCAAAFSYYPRYDYWGQGTQVTVSS | high polyreactivity
